Reference: PMC4967043
pKd: −log10 of the molar value.

Target: (SIM)m, m = 1
Test: ITC

- pKd: 5.00
Substance: (SUMO)m, m = 1 (from UniProt P55854 1-92) (natural protein)
